This passage reports Binding affinity (RU) results from patent US20250011363A1, “OPTIMIZED SHORTENED PEPTIDE THAT BINDS TO ACETYLCHOLINE RECEPTOR, AND USE THEREOF” (SKINMED CO., LTD., priority 2021, published 2025).

The test deals with acetylcholine receptor. Briefly: SPR, AchR immobilised on chip, peptide at 10 uM. On the technique in general: SPR reads the build-up and loss of mass on a sensor chip optically.

For the molecule KQQLK [5mer-559], the Binding affinity (RU) was 81 RU.

KLVTK [5mer-577] returned a Binding affinity (RU) of 77 RU.

The molecule RGYTR [5mer-580] showed a Binding affinity (RU) of 70 RU.

Molecule KVYTR [5mer-275] showed a Binding affinity (RU) of 64 RU.

Regarding RVIYK [5mer-556], the Binding affinity (RU) came to 52 RU.

The molecule RRQYR [5mer-289] yielded a Binding affinity (RU) of 87 RU.

Molecule KGVLR [5mer-581] returned a Binding affinity (RU) of 65 RU.

On to KGQLK [5mer-285], for which the Binding affinity (RU) worked out at 75 RU.

As for KGRRR [5mer-586], the Binding affinity (RU) worked out at 78 RU.

KGFYR [5mer-575]: the Binding affinity (RU) was found to be 69 RU.

In the case of KLVRR [5mer-570], the Binding affinity (RU) was determined as 56 RU.

In turn, KVQCK [5mer-555] registered a Binding affinity (RU) of 71 RU.

KWVYK [5mer-283]: the Binding affinity (RU) stood at 51 RU.

With RLVSK [5mer-565], the Binding affinity (RU) was determined as 77 RU.

In the case of RQQRK [5mer-569], the Binding affinity (RU) was 79 RU.

In turn, KLRTK [5mer-572] displayed a Binding affinity (RU) of 58 RU.

RRVLR [5mer-261] returned a Binding affinity (RU) of 59 RU.

Take KSRCR [5mer-262]: the Binding affinity (RU) was 59 RU.

RLFLR [5mer-269]: the Binding affinity (RU) is 85 RU.

For the molecule RWFQK [5mer-286], the Binding affinity (RU) came out at 71 RU.

On to KQVTR [5mer-263], for which the Binding affinity (RU) was 80 RU.

Consider KSVLR [5mer-578], for which the Binding affinity (RU) is 65 RU.

With KQITR [5mer-568], the Binding affinity (RU) was 64 RU.

Molecule RWRYK [5mer-558] displayed a Binding affinity (RU) of 84 RU.

In turn, RSFTR [5mer-588] returned a Binding affinity (RU) of 60 RU.

The molecule RVLTR [5mer-282] registered a Binding affinity (RU) of 77 RU.

As for RSLYK [5mer-579], the Binding affinity (RU) was found to be 53 RU.

As to RVFTR [5mer-277], the Binding affinity (RU) was determined as 82 RU.

The molecule KWRCK [5mer-561] showed a Binding affinity (RU) of 72 RU.

Molecule KVVYR [5mer-583] had a Binding affinity (RU) of 75 RU.

As to KQRTR [5mer-255], the Binding affinity (RU) amounted to 82 RU.

In turn, KQLYK [5mer-566] had a Binding affinity (RU) of 78 RU.

As to RSVSK [5mer-585], the Binding affinity (RU) was 74 RU.

On to RLLSK [5mer-554], for which the Binding affinity (RU) came out at 65 RU.

For the molecule RWQRR [5mer-278], the Binding affinity (RU) turned out to be 66 RU.

For RSQQR [5mer-270], the Binding affinity (RU) was 52 RU.

With KWYQR [5mer-560], the Binding affinity (RU) was 59 RU.

For the molecule RLVLK [5mer-563], the Binding affinity (RU) is 60 RU.

The molecule RSRYR [5mer-564] gave a Binding affinity (RU) of 74 RU.

RLFRK [5mer-576] displayed a Binding affinity (RU) of 62 RU.

As to RSIYR [5mer-573], the Binding affinity (RU) was 84 RU.

On to KQRRK [5mer-557], for which the Binding affinity (RU) came out at 87 RU.

RGRYR [5mer-271]: the Binding affinity (RU) was determined as 68 RU.

RVRQR [5mer-562] came in with a Binding affinity (RU) of 70 RU.

Consider KRYCK [5mer-268], for which the Binding affinity (RU) stood at 54 RU.

In the case of KSYQK [5mer-266], the Binding affinity (RU) amounted to 66 RU.

Molecule KRQYK [5mer-258] came in with a Binding affinity (RU) of 84 RU.

Molecule RGFLK [5mer-281] came in with a Binding affinity (RU) of 58 RU.

For the molecule KGFTR [5mer-574], the Binding affinity (RU) was found to be 59 RU.

In turn, RSLRR [5mer-276] returned a Binding affinity (RU) of 70 RU.

Take KRLLK [5mer-267]: the Binding affinity (RU) amounted to 66 RU.

Turning to KLLRK [5mer-254], the Binding affinity (RU) was 87 RU.

Consider RLIRK [5mer-259], for which the Binding affinity (RU) was found to be 71 RU.

On to RGICK [5mer-582], for which the Binding affinity (RU) was determined as 82 RU.

Molecule RRLTK [5mer-571] returned a Binding affinity (RU) of 51 RU.

In the case of RQFTR [5mer-257], the Binding affinity (RU) worked out at 85 RU.

As to KRYRR [5mer-287], the Binding affinity (RU) was 68 RU.

The molecule KLLSR [5mer-553] displayed a Binding affinity (RU) of 72 RU.

Turning to KGYQR [5mer-272], the Binding affinity (RU) was found to be 83 RU.

In turn, RVITR [5mer-587] returned a Binding affinity (RU) of 66 RU.

Regarding RWQCR [5mer-265], the Binding affinity (RU) was found to be 77 RU.

For KQVQR [5mer-284], the Binding affinity (RU) came to 52 RU.

As for RVVTK [5mer-279], the Binding affinity (RU) came out at 56 RU.

KLILK [5mer-288] showed a Binding affinity (RU) of 73 RU.

Molecule KWILK [5mer-280] had a Binding affinity (RU) of 53 RU.

In turn, KQIQK [5mer-584] showed a Binding affinity (RU) of 76 RU.

Take KVYRR [5mer-260]: the Binding affinity (RU) was determined as 57 RU.

The molecule RRYCK [5mer-567] showed a Binding affinity (RU) of 63 RU.

RQVRK [5mer-274] returned a Binding affinity (RU) of 62 RU.

On to KWYRK [5mer-264], for which the Binding affinity (RU) is 50 RU.

Regarding RGVCK [5mer-256], the Binding affinity (RU) was 60 RU.

Turning to RVQSK [5mer-273], the Binding affinity (RU) came out at 82 RU.
